± gives the uncertainty stated by the source.
Test: self-splicing fitness, log relative to wild type (ln ratio); higher = more splicing; Tetrahymena group I intron in knt gene, E. coli kanamycin selection, DiMSum; sequences stand for … in CUCUCU…GGAGGGAAAAGUUAUCAGGCAUGCACCUGGUAGCUAGUCUUUAAACCAAUAGAUUGCAUCGGUUUAAAAGGCAAGACCGUCAAAUUGCGGGAAAGGGGUCAACAGCCGUUCAGUACCAAGUCUCAGGGGAAACUUUGAGAUGGCCUUGCAAAGGGUAUGGUAAUAAGCUGACGGACAUGGUCCUAACCACGCAGCCAAGUCCUAAGUCAACAGAUCUUCUGUUGAUAUGGAUGCAGUUCACAGACUAAAUGUCGGUCGGGGAAGAUGUAUUCUUCUCAUAAGAUAUAGUCGGACCUCUCCUUAAUGGGAGCUAGCGGAUGAAGUGAUGCAACACUGGAGCCGCUGGGAACUAAUUUGUAUGCGAAAGUAUAUUGAUUAGUUUUGGAGUACUCGUGGUCG
In short: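 Six replicate transformations of E. coli BL21(DE3) with a pET-22b(+) library were grown overnight at 37°C or 30°C. The library randomised all eight P1ex-region intron nucleotides, the intron lying in the knt kanamycin-resistance gene, and plates were LB agar with or without 25 μg/mL kanamycin plus 100 μg/mL carbenicillin, 50 μM IPTG and 0.2% rhamnose. Pooled colonies were amplicon-sequenced on an Illumina HiSeq 2500, and fitness is the DiMSum error-weighted combination of wild-type-normalised replicate fold changes, kanamycin versus none.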

Row | Sequence | self-splicing fitness (ln) (30 °C) | self-splicing fitness (ln) (37 °C)
1 | UACGAGCAAUAUUACGUGCG | -3.07 ± 0.15 | -1.97 ± 0.18
2 | GUAAAGCAAUAUUACGUCUA | 0.446 ± 0.11 | 0.0339 ± 0.13
3 | UACUAGCAAUAUUACGUAAA | -1.66 ± 0.12 | -0.614 ± 0.14
4 | UACAAGCAAUAUUACGUUGU | -3.58 ± 0.12 | -2.99 ± 0.14
5 | GCCAAGCAAUAUUACGCAGG | -2.98 ± 0.17 | -2.05 ± 0.24
6 | UUUCAGCAAUAUUACGUUCG | -1.09 ± 0.085 | -0.545 ± 0.13
7 | AAGCAGCAAUAUUACGCUUA | -1.9 ± 0.15 | -1.24 ± 0.14
8 | GGAAAGCAAUAUUACGAGAC | -3.69 ± 0.17 | -1.96 ± 0.11
9 | AUUAAGCAAUAUUACGGGAG | -3.06 ± 0.23 | -1.89 ± 0.18
10 | GCAUAGCAAUAUUACGCGUA | -1.43 ± 0.13 | -0.403 ± 0.12
11 | AUCAAGCAAUAUUACGCUGA | -2.51 ± 0.13 | -1.46 ± 0.12
12 | CCCAAGCAAUAUUACGCGUG | -3.31 ± 0.12 | -3.1 ± 0.18
13 | UACAAGCAAUAUUACGGCAA | -0.904 ± 0.072 | -0.0888 ± 0.088
14 | CCUUAGCAAUAUUACGCCUC | – | -2.65 ± 0.41
15 | CAGGAGCAAUAUUACGUGAU | -4.53 ± 0.46 | -1.95 ± 0.23
16 | GCUAAGCAAUAUUACGGCGU | -0.935 ± 0.068 | -0.141 ± 0.091
17 | CUGGAGCAAUAUUACGCGGG | -3.62 ± 0.33 | -2.33 ± 0.31
18 | CCAGAGCAAUAUUACGCAGG | -3.56 ± 0.15 | -2.53 ± 0.17
19 | AAUUAGCAAUAUUACGUCAC | -3.93 ± 0.36 | -2.41 ± 0.33
20 | UAUAAGCAAUAUUACGGUUC | -3.49 ± 0.37 | -1.05 ± 0.33
21 | CUCAAGCAAUAUUACGCGCA | -2.95 ± 0.16 | -2.21 ± 0.15
22 | UGGCAGCAAUAUUACGAGGU | -3.29 ± 0.23 | -2.53 ± 0.3
23 | GAGUAGCAAUAUUACGGACC | -1.29 ± 0.21 | -0.248 ± 0.22
24 | GCCAAGCAAUAUUACGCGAC | -2.35 ± 0.11 | -0.858 ± 0.1
25 | GAAAAGCAAUAUUACGGAAG | -3.88 ± 0.31 | -1.32 ± 0.16

Row | Sequence | self-splicing fitness (ln) (30 °C) | self-splicing fitness (ln) (37 °C)
26 | CUUUAGCAAUAUUACGAAUU | – | -3.6 ± 0.46
27 | AACGAGCAAUAUUACGUUGU | -3.8 ± 0.098 | -3.3 ± 0.13
28 | AGUUAGCAAUAUUACGAACA | -0.687 ± 0.12 | 0.168 ± 0.17
29 | UUUCAGCAAUAUUACGGCGA | -0.344 ± 0.093 | 0.167 ± 0.13
30 | AGUCAGCAAUAUUACGUAUU | -1.08 ± 0.079 | -0.181 ± 0.094
31 | GAGAAGCAAUAUUACGCACU | -1.73 ± 0.14 | -0.249 ± 0.16
32 | AAAAAGCAAUAUUACGACGC | -0.27 ± 0.086 | -0.264 ± 0.1
33 | AUGAAGCAAUAUUACGGUAA | -1.22 ± 0.065 | -0.5 ± 0.088
34 | CUAUAGCAAUAUUACGCCGG | -1.65 ± 0.21 | -0.422 ± 0.25
35 | UUUCAGCAAUAUUACGAAAU | – | -2.26 ± 0.4
36 | CGACAGCAAUAUUACGCAGA | -2.61 ± 0.1 | -2.06 ± 0.1
37 | ACCCAGCAAUAUUACGAAGC | -0.907 ± 0.069 | -0.523 ± 0.072
38 | GGAUAGCAAUAUUACGAUAU | -0.868 ± 0.14 | -0.583 ± 0.19
39 | AGACAGCAAUAUUACGAGUG | -4.11 ± 0.16 | -1.9 ± 0.092
40 | UUUGAGCAAUAUUACGAGAU | -3.65 ± 0.42 | -3.12 ± 0.37
41 | UUAGAGCAAUAUUACGGGGG | -3.04 ± 0.31 | -1.79 ± 0.36
42 | GCUAAGCAAUAUUACGGAGU | -4.27 ± 0.27 | -3.14 ± 0.26
43 | AUAAAGCAAUAUUACGGGCU | -0.992 ± 0.08 | -0.621 ± 0.1
44 | AAGGAGCAAUAUUACGUCAC | – | -1.45 ± 0.46
45 | AUAUAGCAAUAUUACGUGUG | -3.82 ± 0.27 | -2.46 ± 0.18
46 | UGUAAGCAAUAUUACGCAAA | -2.11 ± 0.16 | -0.927 ± 0.13
47 | UAUUAGCAAUAUUACGGUCA | -0.76 ± 0.1 | -0.0892 ± 0.095
48 | CUGCAGCAAUAUUACGGGAC | -2.53 ± 0.22 | -0.85 ± 0.17
49 | UGUAAGCAAUAUUACGACAG | -1.29 ± 0.11 | -0.146 ± 0.13
50 | GCUAAGCAAUAUUACGAACG | -0.806 ± 0.068 | 0.22 ± 0.097

Row | Sequence | self-splicing fitness (ln) (30 °C) | self-splicing fitness (ln) (37 °C)
51 | UUUAAGCAAUAUUACGGAAA | -2.33 ± 0.23 | -0.53 ± 0.23
52 | CCCGAGCAAUAUUACGGUUA | -2.05 ± 0.1 | -1.36 ± 0.1
53 | CCAGAGCAAUAUUACGUUUC | -3.23 ± 0.22 | -3.61 ± 0.31
54 | UCUAAGCAAUAUUACGUUUA | – | -1.69 ± 0.37
55 | ACAUAGCAAUAUUACGGCGG | -1.04 ± 0.049 | -0.52 ± 0.072
56 | CGGAAGCAAUAUUACGAGCU | -2.93 ± 0.21 | -3.07 ± 0.27
57 | UAGGAGCAAUAUUACGUGAC | -3 ± 0.23 | –
58 | AGCUAGCAAUAUUACGAUAA | -2.14 ± 0.12 | -1.12 ± 0.14
59 | UCGCAGCAAUAUUACGCAAU | -2.15 ± 0.19 | -2.92 ± 0.35
60 | GGUAAGCAAUAUUACGGGUU | -1.82 ± 0.076 | -1.69 ± 0.11
61 | UAGCAGCAAUAUUACGCUAA | -2.07 ± 0.26 | -1.73 ± 0.27
62 | GUUAAGCAAUAUUACGGCUU | -1.22 ± 0.11 | -0.546 ± 0.14
63 | GUACAGCAAUAUUACGAUAA | -1.95 ± 0.12 | -0.911 ± 0.13
64 | AAGCAGCAAUAUUACGCCCG | -0.844 ± 0.21 | 1.38 ± 0.32
65 | CCUAAGCAAUAUUACGUAGC | -4.03 ± 0.34 | -2.21 ± 0.23
66 | UAGGAGCAAUAUUACGGUUU | -3.54 ± 0.3 | -3.45 ± 0.39
67 | GUGCAGCAAUAUUACGAAAA | -2.34 ± 0.19 | -2.49 ± 0.22
68 | AUACAGCAAUAUUACGCGAC | -1.87 ± 0.14 | -1.97 ± 0.22
69 | GGUUAGCAAUAUUACGUCGU | -0.855 ± 0.073 | 0.451 ± 0.11
70 | GGACAGCAAUAUUACGACAC | -0.596 ± 0.1 | 0.167 ± 0.13
71 | UGUGAGCAAUAUUACGAUAU | -2.31 ± 0.22 | -1.66 ± 0.37
72 | CCCUAGCAAUAUUACGUGUG | -4.41 ± 0.24 | -2.43 ± 0.13
73 | ACUUAGCAAUAUUACGAAUA | – | -1.76 ± 0.31
74 | ACAUAGCAAUAUUACGCACG | -2.07 ± 0.2 | -1.01 ± 0.15
75 | UUAUAGCAAUAUUACGCUCU | -2.68 ± 0.37 | -0.705 ± 0.46

Row | Sequence | self-splicing fitness (ln) (30 °C) | self-splicing fitness (ln) (37 °C)
76 | AGUUAGCAAUAUUACGGACU | -3.24 ± 0.28 | -1.03 ± 0.25
77 | CGUAAGCAAUAUUACGAGCA | -1.84 ± 0.48 | -1.33 ± 0.22
78 | GAUAAGCAAUAUUACGAAGU | -2.4 ± 0.18 | -1.15 ± 0.23
79 | ACCGAGCAAUAUUACGGCGG | -3.59 ± 0.3 | -2.58 ± 0.39
80 | AUUUAGCAAUAUUACGCCUG | -1.23 ± 0.12 | -0.529 ± 0.12
81 | UACAAGCAAUAUUACGCCGA | -1.29 ± 0.1 | -0.999 ± 0.11
82 | GGAUAGCAAUAUUACGUUAA | -2.35 ± 0.16 | -1.9 ± 0.16
83 | UCGUAGCAAUAUUACGGAAA | -3.38 ± 0.35 | -2.72 ± 0.31
84 | UUCAAGCAAUAUUACGUGCG | -1.48 ± 0.092 | -0.425 ± 0.088
85 | UGGCAGCAAUAUUACGAGAU | -1.46 ± 0.21 | –
86 | AACGAGCAAUAUUACGCCUG | -3.77 ± 0.32 | –
87 | GCCGAGCAAUAUUACGUUCC | -1.3 ± 0.2 | -0.589 ± 0.25
88 | ACUGAGCAAUAUUACGGGCU | -3.34 ± 0.17 | -2.92 ± 0.25
89 | AAUUAGCAAUAUUACGAUUA | -0.375 ± 0.15 | -0.559 ± 0.15
90 | CGCCAGCAAUAUUACGGGAU | -3.96 ± 0.27 | -2.32 ± 0.28
91 | CCCAAGCAAUAUUACGUAAU | -4.69 ± 0.17 | -2.97 ± 0.19
92 | UAGAAGCAAUAUUACGCGAU | -2.95 ± 0.41 | –
93 | AUCUAGCAAUAUUACGCUUU | -2.3 ± 0.17 | -0.151 ± 0.12
94 | UUGAAGCAAUAUUACGGAGA | -0.684 ± 0.11 | -0.479 ± 0.15
95 | ACUAAGCAAUAUUACGAGCU | -0.626 ± 0.079 | -0.478 ± 0.087
96 | CUGUAGCAAUAUUACGGAUC | -3.93 ± 0.3 | -3.45 ± 0.39
97 | UUGAAGCAAUAUUACGUGCU | -3.06 ± 0.17 | -1.97 ± 0.16
98 | CCAGAGCAAUAUUACGACUG | -1.05 ± 0.1 | -0.605 ± 0.15
